Target: the molecule itself
Assay: cryo-EM structure

B1: STRN3 (striatin 3), recombinant (natural protein, human, UniProt Q13033-2 1-713, looked up)
chain: MDELAGGGGGGPGMAAPPRQQQGPGGNLGLSPGGNGAAGGGGPPASEGAGPAAGPELSRPQQYTIPGILHYIQHEWARFEMERAHWEVERAELQARIAFLQGERKGQENLKKDLVRRIKMLEYALKQERAKYHKLKYGTELNQGDLKMPTFESEETKDTEAPTAPQNSQLTWKQGRQLLRQYLQEVGYTDTILDVRSQRVRSLLGLSNSEPNGSVETKNLEQILNGGESPKQKGQEIKRSSGDVLETFNFLENADDSDEDEENDMIEGIPEGKDKHRMNKHKIGNEGLAADLTDDPDTEEALKEFDFLVTAEDGEGAGEARSSGDGTEWAEPITFPSGGGKSFIMGSDDVLLSVLGLGDLADLTVTNDADYSYDLPANKDAFRKTWNPKYTLRSHFDGVRALAFHPVEPVLVTASEDHTLKLWNLQKTVPAKKSASLDVEPIYTFRAHIGPVLSLAISSNGEQCFSGGIDATIQWWNMPSPSVDPYDTYEPNVLAGTLVGHTDAVWGLAYSGIKNQLLSCSADGTVRLWNPQEKLPCICTYNGDKKHGIPTSVDFIGCDPAHMVTSFNTGSAVIYDLETSQSLVILSSQVDSGLQSNNHINRVVSHPTLPVTITAHEDRHIKFFDNKTGKMIHSMVAHLDAVTSLAVDPNGIYLMSGSHDCSIRLWNLDSKTCVQEITAHRKKLDESIYDVAFHSSKAYIASAGADALAKVFV
For B1, the “stoichiometry N” value was 4.
